Biological target: purified full-length Polθ (UniProt O75417 1-2590)
Experiment: co-IP

purified full-length Polθ, sequence (O75417 whole entry): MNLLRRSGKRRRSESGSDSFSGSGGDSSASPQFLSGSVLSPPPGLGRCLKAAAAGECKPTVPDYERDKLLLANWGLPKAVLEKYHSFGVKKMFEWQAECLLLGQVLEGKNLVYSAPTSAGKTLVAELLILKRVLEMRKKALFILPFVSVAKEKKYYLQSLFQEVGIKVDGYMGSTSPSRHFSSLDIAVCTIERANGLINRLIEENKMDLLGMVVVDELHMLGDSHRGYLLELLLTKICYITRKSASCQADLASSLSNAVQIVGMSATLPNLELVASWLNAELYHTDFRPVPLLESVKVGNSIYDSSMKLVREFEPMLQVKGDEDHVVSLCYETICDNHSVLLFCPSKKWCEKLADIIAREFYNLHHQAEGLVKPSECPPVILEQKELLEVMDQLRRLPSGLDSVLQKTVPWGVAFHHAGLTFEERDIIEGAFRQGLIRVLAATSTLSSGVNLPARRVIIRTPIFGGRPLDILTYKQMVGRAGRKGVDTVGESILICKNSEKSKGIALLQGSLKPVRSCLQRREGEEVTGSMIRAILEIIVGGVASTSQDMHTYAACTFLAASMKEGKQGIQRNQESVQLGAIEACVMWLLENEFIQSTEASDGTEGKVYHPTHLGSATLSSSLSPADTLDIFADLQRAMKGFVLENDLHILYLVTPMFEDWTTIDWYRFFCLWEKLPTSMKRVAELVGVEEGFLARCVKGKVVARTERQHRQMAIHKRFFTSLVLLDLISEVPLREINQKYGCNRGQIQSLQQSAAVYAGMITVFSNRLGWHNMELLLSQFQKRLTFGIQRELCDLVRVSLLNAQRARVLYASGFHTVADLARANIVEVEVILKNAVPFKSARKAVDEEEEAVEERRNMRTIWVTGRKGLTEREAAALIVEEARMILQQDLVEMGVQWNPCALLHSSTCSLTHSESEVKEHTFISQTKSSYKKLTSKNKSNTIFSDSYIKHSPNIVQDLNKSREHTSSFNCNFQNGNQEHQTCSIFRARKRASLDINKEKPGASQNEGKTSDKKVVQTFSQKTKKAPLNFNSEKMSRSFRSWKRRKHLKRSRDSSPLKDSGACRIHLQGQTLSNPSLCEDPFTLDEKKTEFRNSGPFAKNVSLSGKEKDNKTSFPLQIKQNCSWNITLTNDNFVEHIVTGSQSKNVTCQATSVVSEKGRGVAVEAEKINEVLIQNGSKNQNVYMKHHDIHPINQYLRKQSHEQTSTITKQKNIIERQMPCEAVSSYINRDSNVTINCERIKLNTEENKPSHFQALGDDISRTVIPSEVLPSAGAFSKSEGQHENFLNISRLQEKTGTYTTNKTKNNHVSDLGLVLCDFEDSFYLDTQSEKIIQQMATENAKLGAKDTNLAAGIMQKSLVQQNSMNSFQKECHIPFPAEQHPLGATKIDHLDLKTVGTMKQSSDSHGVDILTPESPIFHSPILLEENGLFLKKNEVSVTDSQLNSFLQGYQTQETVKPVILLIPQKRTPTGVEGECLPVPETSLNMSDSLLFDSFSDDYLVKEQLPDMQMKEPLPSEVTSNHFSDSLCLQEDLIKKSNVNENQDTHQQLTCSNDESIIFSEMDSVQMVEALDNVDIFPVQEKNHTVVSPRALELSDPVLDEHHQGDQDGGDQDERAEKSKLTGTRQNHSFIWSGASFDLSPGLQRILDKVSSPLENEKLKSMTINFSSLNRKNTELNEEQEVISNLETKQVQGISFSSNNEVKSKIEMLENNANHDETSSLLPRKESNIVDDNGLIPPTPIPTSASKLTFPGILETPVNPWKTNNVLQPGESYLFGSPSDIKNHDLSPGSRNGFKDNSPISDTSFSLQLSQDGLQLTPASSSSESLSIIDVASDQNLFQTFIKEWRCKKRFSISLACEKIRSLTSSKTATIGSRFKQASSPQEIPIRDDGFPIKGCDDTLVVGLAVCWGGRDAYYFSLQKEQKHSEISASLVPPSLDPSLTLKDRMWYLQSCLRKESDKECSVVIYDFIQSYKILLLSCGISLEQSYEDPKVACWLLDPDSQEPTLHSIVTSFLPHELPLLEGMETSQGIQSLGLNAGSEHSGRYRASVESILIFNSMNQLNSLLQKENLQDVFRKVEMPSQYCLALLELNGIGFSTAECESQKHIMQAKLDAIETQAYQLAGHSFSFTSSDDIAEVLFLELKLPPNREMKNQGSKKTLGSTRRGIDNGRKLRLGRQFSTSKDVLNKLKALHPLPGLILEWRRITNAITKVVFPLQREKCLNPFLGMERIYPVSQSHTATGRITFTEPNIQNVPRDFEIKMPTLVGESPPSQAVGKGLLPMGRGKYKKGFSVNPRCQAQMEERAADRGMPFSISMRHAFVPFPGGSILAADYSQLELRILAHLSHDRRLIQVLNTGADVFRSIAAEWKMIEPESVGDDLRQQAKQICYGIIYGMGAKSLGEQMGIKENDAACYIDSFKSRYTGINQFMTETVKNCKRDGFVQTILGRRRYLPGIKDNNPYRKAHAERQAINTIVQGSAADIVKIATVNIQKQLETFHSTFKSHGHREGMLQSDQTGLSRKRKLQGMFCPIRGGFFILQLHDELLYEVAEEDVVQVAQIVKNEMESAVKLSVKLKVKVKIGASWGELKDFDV

binding result: binds
B1: purified recombinant human RHINO protein (natural protein, UniProt Q9BSD3 1-238, looked up)
chain: MPPRKKRRQPSQKAPLLFHQQPLEGPKHSCASTQLPITHTRQVPSKPIDHSTITSWVSPDFDTAAGSLFPAYQKHQNRARHSSRKPTTSKFPHLTFESPQSSSSETLGIPLIRECPSESEKDVSRRPLVPVLSPQSCGNMSVQALQSLPYVFIPPDIQTPESSSVKEELIPQDQKENSLLSCTLHTGTPNSPEPGPVLVKDTPEDKYGIKVTWRRRQHLLAYLRERGKLSRSQFLVKS
